From US20170000909

Columns and labels:
M4 micelle = target: T1, M4 micelle
T1 chain: GPLGLAGKWAAAAKAAAAK

[1] = target: T2, M1 micelle of fluorescein labelled PPA-1 (not fully specified)
T2 chain: GPLGLAGKWAAAAKAAAAK

Peptide 1 = target: T3, Peptide 1
T3 chain: GPLGLAGKWAAAAKAAAAK

B1: matrix-metalloproteinase 9 (protein)
chain: MRTPRCGVPDLGRFQTFEGDLKWHHHNITYWIQNYSEDLPRAVIDDAFARAFALWSAVTPLTFTRVYSRDADIVIQFGVAEHGDGYPFDGKDGLLAHAFPPGPGIQGDAHFDDDELWSLGKGVVVPTRFGNADGAACHFPFIFEGRSYSACTTDGRSDGLPWCSTTANYDTDDRFGFCPSERLYTQDGNADGKPCQFPFIFQGQSYSACTTDGRSDGYRWCATTANYDRDKLFGFCPTRADSTVMGGNSAGELCVFPFTFLGKEYSTCTSEGRGDGRLWCATTSNFDSDKKWGFCPDQGYSLFLVAAHEFGHALGLDHSSVPEALMYPMYRFTEGPPLHKDDVNGIRHLYGPRPEPEPRPPTTTTPQPTAPPTVCPTGPPTVHPSERPTAGPTGPPSAGPTGPPTAGPSTATTVPLSPVDDACNVNIFDAIAEIGNQLYLFKDGKYWRFSEGRGSRPQGPFLIADKWPALPRKLDSVFEERLSKKLFFFSGRQVWVYTGASVLGPRRLDKLGLGADVAQVTGALRSGRGKMLLFSGRRLWRFDVKAQMVDPRSASEVDRMFPGVPLDTHDVFQYREKAYFCQDRFYWRVSSRSELNQVDQVGYVTYDILQCPED
- Michaelis-Menten kinetics (Kcat and KM) from fluorescein signal increase upon cleavage of the Dabcyl label (M4 micelle): this substrate for MMP-9 is comparable to standard substrate
- MMP-9 cleavage efficiency (RP-HPLC after 24 hrs) [1]: estimated to be 41%
- MMP-9 cleavage efficiency (RP-HPLC after 24 hrs) (Peptide 1): quantitative
